# Biological target: actin from bovine muscle, monomerized (G-actin), labelled with NT-647 dye (bovine) (UniProt P68138)
# Test: MST
row,Substance,Kd [nM]
1,"F3_(P97-232), recombinant fragment of the P97 cilium adhesin (amino acids 768-938) (domain or fragment)",1790
2,"F1_(P97-232), recombinant fragment of the P97 cilium adhesin (amino acids 106-758) (domain or fragment)",34.2

# Source: paper PMC5835332
